Results as given in patent publication US20200123260A1.

Assays:
Experiment in all cases: cell-based or functional assay
[1] = target: hTrkB-a isoform fused to a small peptide epitope, in U2OS cells (Discoverx Pathhunter) (human) (UniProt Q16620)
[2] = target: hTrkA in the SHC1 recruitment assay (U2OS, Discoverx Pathhunter) (human) (UniProt P04629)
[3] = target: hTrkC in the SHC1 recruitment assay (U2OS, Discoverx Pathhunter) (human) (UniProt Q16288)
Sequence of hTrkC in the SHC1 recruitment assay (U2OS, Discoverx Pathhunter) (human) (Q16288 32-839): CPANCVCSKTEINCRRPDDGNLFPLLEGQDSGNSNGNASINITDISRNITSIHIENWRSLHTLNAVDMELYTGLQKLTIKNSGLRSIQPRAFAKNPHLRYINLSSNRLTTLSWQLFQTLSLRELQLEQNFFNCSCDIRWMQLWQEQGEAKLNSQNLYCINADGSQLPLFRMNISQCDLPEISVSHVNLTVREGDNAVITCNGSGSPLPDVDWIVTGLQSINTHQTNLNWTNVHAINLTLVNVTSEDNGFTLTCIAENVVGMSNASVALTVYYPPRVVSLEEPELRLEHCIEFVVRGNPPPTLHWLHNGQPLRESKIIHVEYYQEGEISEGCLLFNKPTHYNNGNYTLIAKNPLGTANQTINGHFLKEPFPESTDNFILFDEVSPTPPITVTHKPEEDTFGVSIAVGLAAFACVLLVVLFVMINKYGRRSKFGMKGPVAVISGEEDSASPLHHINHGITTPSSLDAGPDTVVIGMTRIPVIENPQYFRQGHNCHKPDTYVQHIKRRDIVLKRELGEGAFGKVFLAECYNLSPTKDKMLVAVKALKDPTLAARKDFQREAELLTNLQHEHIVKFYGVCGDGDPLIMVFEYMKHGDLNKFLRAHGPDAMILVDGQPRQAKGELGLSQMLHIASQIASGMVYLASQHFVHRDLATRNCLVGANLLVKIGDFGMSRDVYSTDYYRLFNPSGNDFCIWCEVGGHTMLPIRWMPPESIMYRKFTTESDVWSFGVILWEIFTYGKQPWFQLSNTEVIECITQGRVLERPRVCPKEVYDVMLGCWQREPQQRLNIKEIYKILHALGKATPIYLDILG

Sequence of hTrkB-a isoform fused to a small peptide epitope, in U2OS cells (Discoverx Pathhunter) (human) (Q16620 32-822): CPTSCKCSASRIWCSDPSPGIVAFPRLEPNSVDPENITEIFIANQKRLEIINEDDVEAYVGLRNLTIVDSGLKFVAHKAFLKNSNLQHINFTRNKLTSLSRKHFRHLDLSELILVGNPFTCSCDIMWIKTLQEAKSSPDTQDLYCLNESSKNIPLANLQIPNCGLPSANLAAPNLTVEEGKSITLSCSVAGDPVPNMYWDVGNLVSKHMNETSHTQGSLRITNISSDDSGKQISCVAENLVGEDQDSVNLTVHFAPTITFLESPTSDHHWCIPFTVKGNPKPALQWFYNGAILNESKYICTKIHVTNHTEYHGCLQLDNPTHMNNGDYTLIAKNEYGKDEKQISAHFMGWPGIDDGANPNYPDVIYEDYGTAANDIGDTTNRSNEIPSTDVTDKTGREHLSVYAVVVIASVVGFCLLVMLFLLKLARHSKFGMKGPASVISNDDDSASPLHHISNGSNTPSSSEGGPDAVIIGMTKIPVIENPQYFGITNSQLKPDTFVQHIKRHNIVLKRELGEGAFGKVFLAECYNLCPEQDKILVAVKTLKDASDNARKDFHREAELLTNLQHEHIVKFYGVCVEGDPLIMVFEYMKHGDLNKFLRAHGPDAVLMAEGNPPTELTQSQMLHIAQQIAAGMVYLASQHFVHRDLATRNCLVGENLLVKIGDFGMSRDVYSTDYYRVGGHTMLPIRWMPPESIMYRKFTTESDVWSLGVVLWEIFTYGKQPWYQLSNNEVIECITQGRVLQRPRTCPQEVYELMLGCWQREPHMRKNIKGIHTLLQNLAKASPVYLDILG
Sequence of hTrkA in the SHC1 recruitment assay (U2OS, Discoverx Pathhunter) (human) (P04629 33-796): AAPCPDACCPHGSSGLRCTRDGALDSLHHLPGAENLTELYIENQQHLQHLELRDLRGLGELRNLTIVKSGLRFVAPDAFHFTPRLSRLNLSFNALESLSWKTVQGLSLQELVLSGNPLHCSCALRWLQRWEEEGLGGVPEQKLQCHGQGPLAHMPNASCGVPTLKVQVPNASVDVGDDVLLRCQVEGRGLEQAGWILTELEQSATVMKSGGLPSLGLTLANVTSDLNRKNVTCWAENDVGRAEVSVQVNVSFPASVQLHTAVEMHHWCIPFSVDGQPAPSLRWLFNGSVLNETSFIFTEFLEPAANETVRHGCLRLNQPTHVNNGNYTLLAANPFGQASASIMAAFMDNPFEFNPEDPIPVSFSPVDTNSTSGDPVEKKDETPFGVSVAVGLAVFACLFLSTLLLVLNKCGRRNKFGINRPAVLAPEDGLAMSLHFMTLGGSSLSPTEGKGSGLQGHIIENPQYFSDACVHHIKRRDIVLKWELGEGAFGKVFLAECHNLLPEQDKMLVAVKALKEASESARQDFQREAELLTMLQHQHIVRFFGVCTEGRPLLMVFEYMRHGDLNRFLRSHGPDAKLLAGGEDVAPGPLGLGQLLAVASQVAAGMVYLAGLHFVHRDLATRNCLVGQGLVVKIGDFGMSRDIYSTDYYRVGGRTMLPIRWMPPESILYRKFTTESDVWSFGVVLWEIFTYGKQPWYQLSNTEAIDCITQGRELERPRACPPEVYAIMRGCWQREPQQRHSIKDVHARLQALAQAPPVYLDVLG
Sequence of NGF (R&D 256GF) (ligand) (P01138 122-241): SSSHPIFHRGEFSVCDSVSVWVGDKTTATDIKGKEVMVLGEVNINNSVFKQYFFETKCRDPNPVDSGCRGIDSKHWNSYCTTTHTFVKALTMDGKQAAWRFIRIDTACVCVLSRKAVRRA

Substance: NGF (R&D 256GF) (ligand)
- EC50, SHC1 recruitment assay [1]: 1.59 nM

Substance: hIgG control antibody
- Fold-increase, SHC1 recruitment assay [2]: 1.1 fold
- Fold-increase, SHC1 recruitment assay [3]: 1 fold
- Fold-increase, SHC1 recruitment assay [1]: 1.1 fold
